Legend:
[1] = test system: O=c1ccn([C@@H]2O[C@H](COP(=O)(O)OP(=O)(O)O)[C@@H](O)[C@H]2O)c(=O)[nH]1; assay: purified protein; type: biochemical, Micractinium conductrix; details: 200 mM sucrose, 50 mM HEPES-NaOH pH 7.0, 37°C, sucrose cleavage direction, apparent
[2] = test system: OC[C@H]1O[C@@](CO)(O[C@H]2O[C@H](CO)[C@@H](O)[C@H](O)[C@H]2O)[C@@H](O)[C@@H]1O; assay: purified protein; type: biochemical, Micractinium conductrix; details: 2 mM UDP, 50 mM HEPES-NaOH pH 7.0, 37°C, sucrose cleavage direction, apparent

McSuSy (Micractinium conductrix), sequence (chain, as listed by the source): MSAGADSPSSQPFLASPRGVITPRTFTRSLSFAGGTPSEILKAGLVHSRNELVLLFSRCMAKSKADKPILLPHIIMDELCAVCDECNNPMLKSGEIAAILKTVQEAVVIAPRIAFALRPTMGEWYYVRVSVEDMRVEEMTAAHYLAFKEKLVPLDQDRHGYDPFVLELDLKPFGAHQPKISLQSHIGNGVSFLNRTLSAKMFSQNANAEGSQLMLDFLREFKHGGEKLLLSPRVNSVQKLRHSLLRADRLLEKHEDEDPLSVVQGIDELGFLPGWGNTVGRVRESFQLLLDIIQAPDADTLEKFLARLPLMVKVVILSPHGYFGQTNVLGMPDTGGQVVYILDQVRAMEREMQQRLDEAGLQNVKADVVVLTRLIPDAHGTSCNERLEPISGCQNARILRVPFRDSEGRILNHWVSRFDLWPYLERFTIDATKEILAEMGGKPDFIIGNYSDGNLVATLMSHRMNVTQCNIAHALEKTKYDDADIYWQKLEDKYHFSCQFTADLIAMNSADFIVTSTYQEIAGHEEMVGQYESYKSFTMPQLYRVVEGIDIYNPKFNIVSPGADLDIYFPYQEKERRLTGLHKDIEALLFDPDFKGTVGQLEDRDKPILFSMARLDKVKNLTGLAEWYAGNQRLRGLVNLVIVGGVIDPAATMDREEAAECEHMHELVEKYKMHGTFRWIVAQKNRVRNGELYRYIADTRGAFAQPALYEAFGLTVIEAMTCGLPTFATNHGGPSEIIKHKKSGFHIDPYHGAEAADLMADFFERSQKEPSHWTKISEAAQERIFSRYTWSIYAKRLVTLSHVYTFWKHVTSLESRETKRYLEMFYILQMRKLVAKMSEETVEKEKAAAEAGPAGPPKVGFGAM
McSuSy (Micractinium conductrix; S31D), sequence (chain, as listed by the source S31D): as the sequence (chain, as listed by the source) above, with S31D counted along it

Substance	Km [1] [mM]	Vmax [1] [µmol/min/mg]	kcat [1] [s⁻¹]	kcat/Km [1] [M⁻¹ s⁻¹]	Km [2] [mM]
McSuSy (Micractinium conductrix)	0.14	10.4	17.3	124000	90
McSuSy (Micractinium conductrix; S31D)	0.092	11.4	19	206000	88

Source: publication PMC10465243, “Identification of sucrose synthase from Micractinium conductrix to favor biocatalytic glycosylation” (Frontiers in Microbiology, 2023)
